Experimental data taken from US20250064934A1 (CENTURY THERAPEUTICS, published 2025).
Positions count from the first letter of the chain named. Blank lines part the entries; values can stand above or below the binder they belong to.

How the values were obtained:
[1] = target: T1, CD22 expressed on the cell surface (Raji, Daudi, CHO-CD22 and other CD22+ cells) (UniProt P20273 20-847, limits assumed); test: cell-based or functional assay
T1 construct: whole, on cells; also called CD22 positive Raji cells; CD22+ Raji cells
T1 sequence (looked up): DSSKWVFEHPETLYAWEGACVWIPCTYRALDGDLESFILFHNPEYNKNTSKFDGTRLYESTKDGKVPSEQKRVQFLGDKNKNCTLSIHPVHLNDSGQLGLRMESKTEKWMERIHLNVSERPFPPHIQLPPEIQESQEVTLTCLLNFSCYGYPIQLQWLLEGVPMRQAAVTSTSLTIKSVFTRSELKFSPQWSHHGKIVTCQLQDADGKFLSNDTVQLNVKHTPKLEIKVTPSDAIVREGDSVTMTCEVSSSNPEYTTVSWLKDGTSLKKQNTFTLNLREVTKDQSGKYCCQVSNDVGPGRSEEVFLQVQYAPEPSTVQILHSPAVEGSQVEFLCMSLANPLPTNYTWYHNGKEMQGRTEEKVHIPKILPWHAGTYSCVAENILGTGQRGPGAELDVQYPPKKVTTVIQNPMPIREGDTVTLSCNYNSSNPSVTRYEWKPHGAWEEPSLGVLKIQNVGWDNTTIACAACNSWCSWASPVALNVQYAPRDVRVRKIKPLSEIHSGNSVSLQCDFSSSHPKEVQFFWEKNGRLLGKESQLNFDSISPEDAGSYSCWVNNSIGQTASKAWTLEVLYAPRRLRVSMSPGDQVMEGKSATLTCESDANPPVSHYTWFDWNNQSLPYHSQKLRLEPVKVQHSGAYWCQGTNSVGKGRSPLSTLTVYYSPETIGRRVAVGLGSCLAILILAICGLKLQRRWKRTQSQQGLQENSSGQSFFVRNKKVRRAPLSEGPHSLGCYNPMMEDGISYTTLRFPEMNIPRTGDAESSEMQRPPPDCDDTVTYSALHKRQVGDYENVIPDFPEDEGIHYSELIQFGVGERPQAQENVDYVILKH

[2] = target: T1, CD22 expressed on the cell surface …; test: flow cytometry on Raji cells, PE-labeled anti-human IgG Fc detection
Protocol: FIGS. 1A-C show results of VHH-Fc fusion proteins that were examined by flow cytometry for CD22 cellular binding in Raji cells. […] No binding was seen to Raji CD22 knock-out cells. B) PROT265 and PROT810 (an affinity matured variant of PROT265) bind to Raji cells, with PROT810 showing improved binding relative to PROT265.
(§1) VHH-Fc proteins were tested for binding to CD22 expressed on the cell surface. VHH-Fc proteins were serially diluted and added to Raji cells and incubated at 4 C for 30 minutes. Cells were washed once in BD staining buffer, BSA (BD Pharmingen), then PE-labeled anti-human IgG Fc (Jackson Immnoresearch) was added to detect VHH-Fc cell binding and incubated at 4 C for 30 minutes. Cells were washed once, then resuspended in staining buffer with 0.1% pluronic acid and run through a flow cytometer to detect the fluorescent labeling of the VHH-Fc cells.

[3] = target: T2, monomeric CD22 (Acro Biosystems) (UniProt P20273 20-687); test: BLI (ForteBio Octet Red), VHH-Fc captured on anti-human IgG Fc sensor, monomeric CD22 at 250 nM
T2 construct: Bought protein; also called CD22 antigen; soluble CD22 protein
T2 sequence (looked up): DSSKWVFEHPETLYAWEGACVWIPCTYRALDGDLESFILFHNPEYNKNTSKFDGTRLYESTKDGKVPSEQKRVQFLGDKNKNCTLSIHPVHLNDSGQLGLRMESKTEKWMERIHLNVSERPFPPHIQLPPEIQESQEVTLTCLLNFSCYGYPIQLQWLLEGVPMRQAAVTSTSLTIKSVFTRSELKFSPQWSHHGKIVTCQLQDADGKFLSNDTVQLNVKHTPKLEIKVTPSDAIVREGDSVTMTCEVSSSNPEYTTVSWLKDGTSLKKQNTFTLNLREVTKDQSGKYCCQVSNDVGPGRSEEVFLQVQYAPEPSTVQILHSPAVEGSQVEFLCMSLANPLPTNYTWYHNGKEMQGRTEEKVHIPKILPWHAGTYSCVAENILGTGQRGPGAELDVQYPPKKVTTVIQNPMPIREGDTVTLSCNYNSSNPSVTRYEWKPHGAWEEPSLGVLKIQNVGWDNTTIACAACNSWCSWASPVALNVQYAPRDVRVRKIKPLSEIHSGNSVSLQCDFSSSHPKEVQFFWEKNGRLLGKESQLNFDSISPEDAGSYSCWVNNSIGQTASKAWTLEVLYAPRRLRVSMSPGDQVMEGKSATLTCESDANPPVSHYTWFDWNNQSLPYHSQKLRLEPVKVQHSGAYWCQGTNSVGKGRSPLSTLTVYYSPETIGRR
Protocol: (§2) VHH-Fc fusion proteins were assessed for affinity against monomeric CD22 (Acro Biosystems) using the ForteBio Octet Red BLI instrument. VHH-Fc proteins were captured onto an anti-human IgG Fc sensor at 50 nM. Sensor tips were quenched with human IgG Fc protein at 100 nM, then CD22 antigen was added at 250 nM to assess binding kinetics. Association was examined for 600 seconds and dissociation was examined for 600 seconds, allowing for calculation of Kon, Kdis and KD.

[4] = target: T1, CD22 expressed on the cell surface …; test: flow cytometry on Raji cells, serially diluted VHH-Fc, detection with PE anti-human IgG Fc, % positive cells
Protocol: as §1

[5] = target: T2, monomeric CD22 (Acro Biosystems); test: protein affinity of VHH-IgG1 Fc fusions (summary sentence, method not named there); before affinity maturation
Protocol: as §2

[6] = target: T2, monomeric CD22 (Acro Biosystems); test: BLI affinity assessment of VHH-Fc fusions
Protocol: as §2
(§3) The D04 clone was affinity matured by scanning mutagenesis of the CDRs and phage display selections for higher affinity clones. Variants were isolated and expressed as VHH-Fc fusions for affinity assessment.

[7] = target: T2, monomeric CD22 (Acro Biosystems); test: protein affinity of VHH-IgG1 Fc fusions (summary sentence, method not named there); after affinity maturation of CDR3
Protocol: as §2, §3

B1: tandem VHH CAR E04-D04_AM_D11 (P1738) (bispecific antibody, part only; not given: which CAR backbone was used, part only)
chain, part: EVQLLESGGGLVQPGGSLRLSCAASGFTSSSYVMGWYRQAPGKEREFVSSISTGGDAYYADSVKGRFTISRDNSKNTLYLQMNSLRAEDTAVYYCAADVWYYHGGAYDYWGQGTQVTVSSGSTSGSGKPGSGEGSTKGQVQLVESGGGLVQAGGSLRLSCAASGSEFTGYPMGWFRQAPGKEREFVAGSVGIGGSTNYADSVKGRFTISRDNAKNTVYLQMNSLKPEDTAVYYCAADKDYYKPYSRYRTAIRYDTWGQGTQVTVSS
Raji cell killing by CAR-T cells (flow cytometry, 48 hours) [1]: < 20%

EC50 [2]: ~2 nM
Kd [3]: 23.3 nM
koff [3]: 0.000536 s⁻¹
kon [3]: 23000 M⁻¹ s⁻¹
B2: PROT740 (E04) VHH-Fc fusion protein (Fc fusion)
chain: EVQLLESGGGLVQPGGSLRLSCAASGFTSSSYVMGWYRQAPGKEREFVSSISTGGDAYYADSVKGRFTISRDNSKNTLYLQMNSLRAEDTAVYYCAADVWYYHGGAYDYWGQGTQVTVSS
notes: VHH fused to the human IgG1 Fc domain; not shown: human IgG1 Fc domain

EC50 [2]: ~2 nM
Kd [3]: 96.1 nM
koff [3]: 0.0102 s⁻¹
kon [3]: 106000 M⁻¹ s⁻¹
B3: PROT739 (A01) VHH-Fc fusion protein (Fc fusion)
chain: EVQLLESGGGLVQPGGSLRLSCAASGLTSYSYAMGWYRQAPGKEREFVSAISSGGSAYYADSVKGRFTISRDNSKNTLYLQMNSLRAEDTAVYYCAVGPYYGFRAVTEADYWGQGTQVTVSS
notes: as for B2

EC50 (read off the curve) [4]: ~1 nM
Kd [3]: 31.9 nM
koff [3]: 0.00257 s⁻¹
kon [3]: 80800 M⁻¹ s⁻¹
Kd [5]: 30 nM
B4: PROT265 (D04) VHH-Fc fusion protein (Fc fusion)
chain: QVQLVESGGGLVQAGGSLRLSCAASGSEFTGYPMGWFRQAPGKEREFVAGSVGIGGSTNYADSVKGRFTISRDNAKNTVYLQMNSLKPEDTAVYYCAADKDYYKPYSRYRTVIRYETWGQGTQVTVSS
notes: also called CD22_D04; not shown: human IgG1 Fc domain

fold improvement of affinity over the D04 clone [6]: 5 fold
Kd [3]: 6.97 nM
koff [3]: 0.000657 s⁻¹
kon [3]: 94300 M⁻¹ s⁻¹
Kd [7]: 5 nM
B5: PROT810 (D04-AM-D11) VHH-Fc fusion protein (Fc fusion)
chain: B4 chain with V112A, E116D
notes: I took that entry to be D04-AM-D11 on the strength of the name; also called DO4-D11-CD22 VHH; not shown: human IgG1 Fc domain

B6: tandem VHH CAR D04_AM_D11-E04 (P1730) (bispecific antibody, part only; not given: which CAR backbone was used, part only)
chain, part: QVQLVESGGGLVQAGGSLRLSCAASGSEFTGYPMGWFRQAPGKEREFVAGSVGIGGSTNYADSVKGRFTISRDNAKNTVYLQMNSLKPEDTAVYYCAADKDYYKPYSRYRTAIRYDTWGQGTQVTVSSGSTSGSGKPGSGEGSTKGEVQLLESGGGLVQPGGSLRLSCAASGFTSSSYVMGWYRQAPGKEREFVSSISTGGDAYYADSVKGRFTISRDNSKNTLYLQMNSLRAEDTAVYYCAADVWYYHGGAYDYWGQGTQVTVSS
Raji cell killing by CAR-T cells (flow cytometry, 48 hours) [1]: 40%
